{"source": "patent US9605283B2", "about": "“Microorganism modified for the production of 1,3-propanediol” (INSTITUT NATIONAL DES SCIENCES APPLIQUÉES, priority 2012, dated 2017)", "format_in_all_cases": "biochemical", "key": {"[1]": {"experiment": "Branched-chain alpha-ketoacid decarboxylase activity (coupled to horse liver alcohol dehydrogenase)", "description": "(§1) OHB decarboxylase activity was assayed by coupling the decarboxylase activity to the NADPH-dependent reduction of the released 3-hydroxypropanal by purified aldehyde reductase, YqhD, from E. coli. The decarboxylation of pyruvate was coupled to the NADH-dependent reduction of acetaldehyde catalysed by yeast alcohol dehydrogenase. Branched-chain alpha-ketoacid decarboxylase activity was measured on 4-methyl-2-oxovaleric acid by coupling to the NADH-dependent reduction of 3-methylbutanal catalysed by horse liver alcohol dehydrogenase. […] Reactions were started by adding 20 mM 2-oxo-4-hydroxybutyrate (OHB), 10 mM 4-methyl-2-oxovaleric acid (MOV), or 5 mM pyruvate."}, "[2]": {"experiment": "OHB decarboxylase activity (coupled to YqhD, NADPH)", "conditions": "for Effect of mutation on activity and/or specificity for OHB (in words): versus wild-type enzyme", "description": "as §1"}, "[3]": {"experiment": "PDO dehydrogenase activity (PDO-dependent reduction of NADP)", "conditions": "100 mM 1,3-propanediol, 10 mM NADP, 37° C., pH 8", "description": "PDO dehydrogenase activity was assayed by following the PDO-dependent reduction of NADP. 1,3-propanediol+NADP^+→3-hydroxypropional+NADPH Reaction scheme:\nReactions were started by adding 100 mM 1,3-propanediol (PDO, Sigma)."}, "[4]": {"experiment": "DHB dehydrogenase activity of membrane-associated enzyme (DHB-dependent reduction of DCIP)", "description": "Activity of the membrane-associated DHB dehydrogenase (Ec-LldD) was assayed by following the DHB-dependent reduction of 2,6-dichloroindophenol (DCIP). (L)-2,4-dihydroxybutyrate+DCIPox→2-oxo-4-hydroxybutyrate+DCIPred Reaction scheme 2:\nReactions were started by adding 20 mM (L)-2,4-dihydroxybutyrate (Rhodia)."}, "[5]": {"experiment": "Lactate dehydrogenase activity (natural substrate)"}, "[6]": {"conditions": "activity measured at 10 mM MOV (KdcA mutants), Table 10"}, "[7]": {"conditions": "activity measured at 20 mM OHB, Table 10"}}}
{"molecule": "Ll-KdcA: branched-chain alpha-ketoacid decarboxylase from L. lactis, SEQ ID No. 130 (protein, listed as Lactococcus lactis) MYTVGDYLLDRLHELGIEEIFGVPGDYNLQFLDQIISREDMKWIGNANELNASYMADGYARTKKAAAFLTTFGVGELSAINGLAGSYAENLPVVEIVGSPTSKVQNDGKFVHHTLADGDFKHFMKMHEPVTAARTLLTAENATYEIDRVLSQLLKERKPVYINLPVDVAAAKAEKPALSLEKESSTTNTTEQVILSKIEESLKNAQKPVVIAGHEVISFGLEKTVTQFVSETKLPITTLNFGKSAVDESLPSFLGIYNGKLSEISLKNFVESADFILMLGVKLTDSSTGAFTHHLDENKMISLNIDEGIIFNKVVEDFDFRAVVSSLSELKGIEYEGQYIDKQYEEFIPSSAPLSQDRLWQAVESLTQSNETIVAEQGTSFFGASTIFLKSNSRFIGQPLWGSIGYTFPAALGSQIADKESRHLLFIGDGSLQLTVQELGLSIREKLNPICFIINNDGYTVEREIHGPTQSYNDIPMWNYSKLPETFGATEDRVVSKIVRTENEFVSVMKEAQADVNRMYWIELVLEKEDAPKLLKKMGKLFAEQNK", "values": [{"measurement": "Max. specific activity, Natural substrate", "setting": "[1]; natural substrate 4-methyl-2-oxovaleric, Table 8", "value": 4, "unit": "µmol/mg/min"}, {"measurement": "Max. specific activity, OHB", "setting": "[2]; when not saturated, activity estimated at 20 mM substrate, Table 8", "value": 0.08, "unit": "µmol/mg/min"}, {"measurement": "OHB decarboxylase activity (in words)", "setting": "[2]; wild-type enzymes", "value": "significant OHB decarboxylase activity"}]}
{"molecule": "Ll-KdcA G402S: L. lactis KdcA mutant G402S, SEQ ID No. 196 (protein, listed as Lactococcus lactis) MYTVGDYLLDRLHELGIEEIFGVPGDYNLQFLDQIISREDMKWIGNANELNASYMADGYARTKKAAAFLTTFGVGELSAINGLAGSYAENLPVVEIVGSPTSKVQNDGKFVHHTLADGDFKHFMKMHEPVTAARTLLTAENATYEIDRVLSQLLKERKPVYINLPVDVAAAKAEKPALSLEKESSTTNTTEQVILSKIEESLKNAQKPVVIAGHEVISFGLEKTVTQFVSETKLPITTLNFGKSAVDESLPSFLGIYNGKLSEISLKNFVESADFILMLGVKLTDSSTGAFTHHLDENKMISLNIDEGIIFNKVVEDFDFRAVVSSLSELKGIEYEGQYIDKQYEEFIPSSAPLSQDRLWQAVESLTQSNETIVAEQGTSFFGASTIFLKSNSRFIGQPLWSSIGYTFPAALGSQIADKESRHLLFIGDGSLQLTVQELGLSIREKLNPICFIINNDGYTVEREIHGPTQSYNDIPMWNYSKLPETFGATEDRVVSKIVRTENEFVSVMKEAQADVNRMYWIELVLEKEDAPKLLKKMGKLFAEQNK", "values": [{"measurement": "Max. specific activity, Natural substrate", "setting": "[1]; [6]", "value": 3.1, "unit": "µmol/mg/min"}, {"measurement": "Max. specific activity, OHB", "setting": "[2]; [7]", "value": 0.09, "unit": "µmol/mg/min"}, {"measurement": "Effect of mutation on activity and/or specificity for OHB (in words)", "setting": "[2]", "value": "increased activity and/or specificity for OHB"}]}
{"molecule": "Ll-KdcA V461I: L. lactis KdcA mutant V461I, SEQ ID No. 198 (protein, listed as Lactococcus lactis) MYTVGDYLLDRLHELGIEEIFGVPGDYNLQFLDQIISREDMKWIGNANELNASYMADGYARTKKAAAFLTTFGVGELSAINGLAGSYAENLPVVEIVGSPTSKVQNDGKFVHHTLADGDFKHFMKMHEPVTAARTLLTAENATYEIDRVLSQLLKERKPVYINLPVDVAAAKAEKPALSLEKESSTTNTTEQVILSKIEESLKNAQKPVVIAGHEVISFGLEKTVTQFVSETKLPITTLNFGKSAVDESLPSFLGIYNGKLSEISLKNFVESADFILMLGVKLTDSSTGAFTHHLDENKMISLNIDEGIIFNKVVEDFDFRAVVSSLSELKGIEYEGQYIDKQYEEFIPSSAPLSQDRLWQAVESLTQSNETIVAEQGTSFFGASTIFLKSNSRFIGQPLWGSIGYTFPAALGSQIADKESRHLLFIGDGSLQLTVQELGLSIREKLNPICFIINNDGYTIEREIHGPTQSYNDIPMWNYSKLPETFGATEDRVVSKIVRTENEFVSVMKEAQADVNRMYWIELVLEKEDAPKLLKKMGKLFAEQNK", "values": [{"measurement": "Max. specific activity, Natural substrate", "setting": "[1]; [6]", "value": 2.76, "unit": "µmol/mg/min"}, {"measurement": "Max. specific activity, OHB", "setting": "[2]; [7]", "value": 0.24, "unit": "µmol/mg/min"}, {"measurement": "Effect of mutation on activity and/or specificity for OHB (in words)", "setting": "[2]", "value": "increased activity and/or specificity for OHB"}]}
{"molecule": "Ec-YqhD: alcohol dehydrogenase yqhD from Escherichia coli, used as PDO dehydrogenase (protein, UniProt Q46856 1-387, looked up) NADPH-dependent aldehyde …: MNNFNLHTPTRILFGKGAIAGLREQIPHDARVLITYGGGSVKKTGVLDQVLDALKGMDVLEFGGIEPNPAYETLMNAVKLVREQKVTFLLAVGGGSVLDGTKFIAAAANYPENIDPWHILQTGGKEIKSAIPMGCVLTLPATGSESNAGAVISRKTTGDKQAFHSAHVQPVFAVLDPVYTYTLPPRQVANGVVDAFVHTVEQYVTKPVDAKIQDRFAEGILLTLIEDGPKALKEPENYDVRANVMWAATQALNGLIGAGVPQDWATHMLGHELTAMHGLDHAQTLAIVLPALWNEKRDTKRAKLLQYAERVWNITEGSDDERIDAAIAATRNFFEQLGVPTHLSDYGLDGSSIPALLKKLEEHGMTQLGENHDITLDVSRRIYEAAR", "values": [{"measurement": "PDO dehydrogenase activity", "setting": "[3]", "value": 0.15, "unit": "µmol/min/mg"}]}
{"molecule": "Ec-LldD: membrane associated (L)-lactate dehydrogenase of E. coli, SEQ ID No. 122 (protein, listed as Escherichia coli) MIISAASDYRAAAQRILPPFLFHYMDGGAYSEYTLRRNVEDLSEVALRQRILKNMSDLSLETTLFNEKLSMPVALAPVGLCGMYARRGEVQAAKAADAHGIPFTLSTVSVCPIEEVAPAIKRPMWFQLYVLRDRGFMRNALERAKAAGCSTLVFTVDMPTPGARYRDAHSGMSGPNAAMRRYLQAVTHPQWAWDVGLNGRPHDLGNISAYLGKPTGLEDYIGWLGNNFDPSISWKDLEWIRDFWDGPMVIKGILDPEDARDAVRFGADGIVVSNHGGRQLDGVLSSARALPAIADAVKGDIAILADSGIRNGLDVVRMIALGADTVLLGRAFLYALATAGQAGVANLLNLIEKEMKVAMTLTGAKSISEITQDSLVQGLGKELPAALAPMAKGNAA", "values": [{"measurement": "Specificity", "setting": "[4]; (Vmax/Km)DHB/(Vmax/Km)nat. substrate, natural substrate lactate", "value": 0.006}, {"measurement": "Max. specific activity, DHB", "setting": "[4]; DCIP assay, Table 2", "value": 0.37, "unit": "µmol/mg/min"}, {"measurement": "Max. specific activity, DHB", "setting": "[4]; E. coli LldD, Table 6", "value": 0.37, "unit": "µmol/mg/min"}, {"measurement": "DHB dehydrogenase activity (in words)", "setting": "[4]; membrane-associated enzyme", "value": "have DHB dehydrogenase activity"}, {"measurement": "Max. specific activity, lactate", "setting": "[5]; E. coli LldD, Table 6", "value": 6.22, "unit": "µmol/mg/min"}, {"measurement": "Max. specific activity, Natural substrate", "setting": "[5]; natural substrate (L)-lactate, Table 2", "value": 6.22, "unit": "µmol/mg/min"}]}
